From US12514920B1, “Respiratory syncytial virus mRNA vaccine, and preparation method therefor and use thereof” (Hangzhou Tianlong Pharmaceutical Co., Ltd., priority 2024, dated 2026)
Residue numbers refer to the chain shown, from its start.

B1: YK-RSV-009 (protein)
chain: QNITEEFYCSTCSAVSKGYLGALRTGWYTSVILIELSNIKENKCNGTDAKVKLIKQELDKYKNAVTDLQLLMQSTPATGSGSAIASGVAVSKVLHLEGEVNKIKSALLSTNKAVVSLSNGVSVLTFKVLDLKNYIDKQLLPIVNKQSCSIPNIETVIEFQQKNNRLLEITREFSVNAGVTTPVSTYMLTNSELLSLINDMPITNDQKKLMSNNVQIVRQQSYSIMSIIKEEVLAYVVQLPLYGVIDTPCWKLHTSPLCTTNTKEGSNICLTRTDRGWYCDNAGSVSFFPQAETCKVQSNRVFCDTMNSRTLPSEVNLCNVDIFNPKYDCKIMTSKTDVSSSVITSLGAIVSCYGKTKCTASNKNRGIIKTFSNGCDYVSNKGVDTVSVGNTLYYVNKQEGQSLYVKCEPIINFYDPLVFPSSEFDASISQVNEKINQSLAFIRKSDELLHNVNAGKSTTNIMITTIIIVIIVILLSLIAVGLLLY
B2: YK-RSV-010 (protein)
chain: B1 chain with C9Q, S30C, L124C, C407G
B3: YK-RSV-043 (protein)
chain: B1 chain with C9Q, L33T, T75C, S86C, V143L, C407G, S422D
B4: YK-RSV-048 (protein)
chain: QNITEEFYQSTCSAVSKGYLGALRTGWYTSVITIELSNIKENKCNGTDAKVKLIKQELDKYKNAVTDLQLLMQSTPATGSGSFLGFLCGVGSAIASGVAVSKVLHLEGEVNKIKSALLSTNKAVVSLSNGVSVLTFKVLDLKNYIDKQLLPILNKQSCSIPNIETVIEFQQKNNRLLEITREFSVNAGVTTPVSTYMLTNSELLSLINDMPITNDQKKLMSNNVQIVRQQSYSIMSIIKEEVLAYVVQLPLYGVIDTPCWKLHTSPLCTTNTKEGSNICLTRTDRGWYCDNAGSVSFFPQAETCKVQSNRVFCDTMCSRTLPSEVNLCNVDIFNPKYDCKIMTSKTDVSSSVITSLGAIVSCYGKTKCTASNKNRGIIKTFSNGCDYVSNKGVDTVSVGNTLYYVNKQEGQSLYVKGEPIINFYDPLVFPSDEFDASISQVNEKINQSLAFIRKSDELLHNVNAGKSTTNIMITTIIIVIIVILLSLIAVGLLLY
B5: YK-RSV-050 (protein)
chain: B4 chain with L87C, C88L
B6: YK-RSV-055 (protein)
chain: B1 chain with C9Q, L33T, A83C, V143L, I228C, C407G, S422D
B7: YK-RSV-057 (protein)
chain: B1 chain with C9Q, L33T, A83C, V143L, I227C, C407G, S422D

What follows are molecules tested on RSV pre-F antibody (3C12) (assay: not given). Details: all stress tests; binding to 3C12, ELISA.
Format: physicochemical
In short: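 RSV F mRNA-vaccine mutants stress-treated: 4° C. for one week, 50° C. for 60 min, low or high osmotic pressure at room temperature for 60 min, acid or base at room temperature for 60 min. Binding to 3C12 (epitope Φ) then measured by ELISA against pre-F trimer standard, HRP anti-human IgG, OD 450/630 nm.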

Row | Molecule | stability under the stress tests (in words)
1 | B1 | superior stability
2 | B2 | superior stability
3 | B3 | superior stability
4 | B4 | superior stability
5 | B5 | superior stability
6 | B6 | superior stability
7 | B7 | superior stability

Same assay, conditions: high osmotic pressure 3000 mM, room temperature, 60 min; ELISA binding to 3C12

Row | Molecule | Stress resistance parameter, Osmotic pressure (mM) 3000
8 | B1 | 0.69 ± 0.15
9 | B2 | 0.84 ± 0.11
10 | B3 | 0.72 ± 0.09
11 | B4 | 0.61 ± 0.17
12 | B5 | 0.66 ± 0.15
13 | B6 | 0.71 ± 0.23
14 | B7 | 0.64 ± 0.15

Same assay, conditions: incubation at 50° C. for 60 min; ELISA binding to 3C12

Row | Molecule | Stress resistance parameter, Temperature (° C.) 50
15 | B1 | 0.84 ± 0.04
16 | B2 | 1.04 ± 0.09
17 | B3 | 0.66 ± 0.06
18 | B4 | 0.70 ± 0.07
19 | B5 | 0.69 ± 0.15
20 | B6 | 0.78 ± 0.19
21 | B7 | 0.64 ± 0.17

Same assay, conditions: low osmotic pressure 10 mM, room temperature, 60 min; ELISA binding to 3C12

Row | Molecule | Stress resistance parameter, Osmotic pressure (mM) 10
22 | B1 | 0.78 ± 0.15
23 | B2 | 0.97 ± 0.07
24 | B3 | 0.84 ± 0.18
25 | B4 | 0.75 ± 0.00
26 | B5 | 0.87 ± 0.19
27 | B6 | 0.72 ± 0.20
28 | B7 | 0.70 ± 0.07

Same assay, conditions: pH 3.5, room temperature, 60 min; ELISA binding to 3C12

Row | Molecule | Stress resistance parameter, pH 3.5
29 | B1 | 0.60 ± 0.14
30 | B2 | 0.82 ± 0.05
31 | B3 | 0.90 ± 0.13
32 | B4 | 0.61 ± 0.07
33 | B5 | 1.23 ± 0.27
34 | B6 | 0.69 ± 0.08
35 | B7 | 0.56 ± 0.08

Same assay, conditions: pH 10, room temperature, 60 min; ELISA binding to 3C12

Row | Molecule | Stress resistance parameter, pH 10
36 | B1 | 0.91 ± 0.04
37 | B2 | 0.93 ± 0.05
38 | B3 | 0.75 ± 0.28
39 | B4 | 1.13 ± 0.19
40 | B5 | 1.16 ± 0.37
41 | B6 | 0.79 ± 0.26
42 | B7 | 0.56 ± 0.09

Same assay, conditions: storage at 4° C. for one week; ELISA binding to 3C12

Row | Molecule | Stress resistance parameter, Temperature (° C.) 4
43 | B1 | 0.71 ± 0.11
44 | B2 | 0.86 ± 0.08
45 | B3 | 0.70 ± 0.13
46 | B4 | 0.46 ± 0.08
47 | B5 | 0.46 ± 0.07
48 | B6 | 0.48 ± 0.11
49 | B7 | 0.61 ± 0.10

What follows are molecules tested on RSV pre-F antibody (3C12) (assay: Binding of epitope Φ of RSV F antigen mutants by flow cytometry). Details: flow cytometry; epitope Φ, antibody 3C12.
In short: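 293T cells were transfected with mRNA-LNP (300 ng mRNA) encoding the RSV F mutants and harvested after 16 h. Cells were stained with fluorescent 3C12 (pre-F-specific epitope Φ) or 11A9 (epitope II, pre-F and post-F) for 2 h at 4 °C in the dark, then washed and read by flow cytometry on 1×10^4 cells per measurement.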

Row | Molecule | RSV pre-F antibody (3C12) Epitope Φ (%) binding rate [%]
50 | B1 | 87.4
51 | B4 | 89.6
52 | B5 | 86.5

Same assay, conditions: ratio of epitope Φ (3C12) to epitope II (11A9) binding rate

Row | Molecule | Φ/II (%)
53 | B1 | 93.9
54 | B2 | 97.3
55 | B3 | 95.3
56 | B4 | 94.2
57 | B5 | 93.0
58 | B6 | 97.0
59 | B7 | 97.1
